From patent US20160194391A1 (AstraZeneca / MedImmune, published 2016) come the findings set out here.

Assay [1] concerns the target T1, human IL-6 (human, UniProt P05231 30-212). As to the kind of experiment: cell-based or functional assay.
For assay [2], the target named is T2, Primate IL-6 (Macaca mulatta, UniProt P51494).
T2 sequence (cytokine, looked up): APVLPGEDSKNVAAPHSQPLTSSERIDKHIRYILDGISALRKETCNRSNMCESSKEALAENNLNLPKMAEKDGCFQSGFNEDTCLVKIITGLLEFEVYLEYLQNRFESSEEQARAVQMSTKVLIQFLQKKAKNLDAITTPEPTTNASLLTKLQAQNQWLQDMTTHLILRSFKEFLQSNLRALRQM
As to the kind of experiment: cell-based or functional assay.

The target of assay [3] is T1, human IL-6. As to the kind of experiment: SPR (SensiQ Pioneer), mAb captured on protein G, IL-6 as analyte (3×FLAG-IL-6 or IL-6 CYT-213, 1-100 nM), 25 C, 1:1 model. As to the method:
Equilibrium constants for rabbit human chimeric mAbs were determined by binding the mAb to the protein G coated chip followed by binding of each analyte (IL-6 or IL-23) to its respective mAb. In order to minimize mass transfer effects, the surface densities of the mAbs for each analyte were adjusted so that as analyte binding approached saturation its corresponding RU fell between 200 and 300. […] For each binding and dissociation cycle the chip surface was regenerated with 15 uL of 20 mM NaOH (5671-02, Mallinckrodt Baker, Philliphsburg, N.J.). The assay temperature was maintained at 25° C. with an analyte flow rate of 50 μL/min and included a 2 minute association phase and 10-30 minute dissociation phase. The on/off rates (kₐ/kd) and dissociation constants (KD) were determined using the format described above along with pseudo-first-order 1:1 interaction model software (Qdat, ICx Nomadics, Stillwater, Okla.).

For assay [4], the target named is T1, human IL-6. As to the kind of experiment: cell-based or functional assay. This is another data set of the same source.
Assay [5] concerns the target T2, Primate IL-6. Put plainly: cell-based or functional assay. The source holds these as a separate data set.
The target in assay [6] is T3, human IL-12 (human, UniProt P29459 23-219; P29460 23-328).
T3 construct: Bioassay used Prospec-Tany Cyt-362
T3 sequence (looked up) 1: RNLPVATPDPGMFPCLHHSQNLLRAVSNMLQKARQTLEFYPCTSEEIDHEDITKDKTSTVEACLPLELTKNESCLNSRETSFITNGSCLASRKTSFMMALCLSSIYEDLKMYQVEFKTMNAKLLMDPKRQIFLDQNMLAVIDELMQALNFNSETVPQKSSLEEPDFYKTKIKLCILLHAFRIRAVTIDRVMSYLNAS
T3 sequence (looked up) 2: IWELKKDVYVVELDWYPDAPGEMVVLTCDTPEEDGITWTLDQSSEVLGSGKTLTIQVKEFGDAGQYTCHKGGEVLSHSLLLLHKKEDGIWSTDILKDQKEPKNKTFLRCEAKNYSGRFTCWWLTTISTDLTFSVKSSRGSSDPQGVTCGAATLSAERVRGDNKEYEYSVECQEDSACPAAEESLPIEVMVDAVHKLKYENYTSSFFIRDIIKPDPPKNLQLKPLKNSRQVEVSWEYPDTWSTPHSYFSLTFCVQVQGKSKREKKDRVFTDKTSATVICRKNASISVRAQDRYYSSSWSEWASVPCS
Put plainly: ELISA, human IL-12 coated on the plate; 13A8 is the anti IL-6 negative control [Binding to Human IL-12]. On the technique in general: An ELISA detects its analyte on a solid surface through an enzyme-linked reagent.

Assay [7] deals with T4, monkey IL-12 (macaque) (macaque, UniProt P48091 23-219; P48095 23-328).
T4 construct: also called macaque IL-12
T4 sequence (looked up) 1: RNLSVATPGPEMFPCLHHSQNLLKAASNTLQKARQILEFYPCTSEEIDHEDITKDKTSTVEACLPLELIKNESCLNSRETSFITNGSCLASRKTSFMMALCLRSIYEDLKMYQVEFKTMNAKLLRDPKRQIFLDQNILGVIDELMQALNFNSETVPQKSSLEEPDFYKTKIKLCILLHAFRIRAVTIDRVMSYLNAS
T4 sequence (looked up) 2: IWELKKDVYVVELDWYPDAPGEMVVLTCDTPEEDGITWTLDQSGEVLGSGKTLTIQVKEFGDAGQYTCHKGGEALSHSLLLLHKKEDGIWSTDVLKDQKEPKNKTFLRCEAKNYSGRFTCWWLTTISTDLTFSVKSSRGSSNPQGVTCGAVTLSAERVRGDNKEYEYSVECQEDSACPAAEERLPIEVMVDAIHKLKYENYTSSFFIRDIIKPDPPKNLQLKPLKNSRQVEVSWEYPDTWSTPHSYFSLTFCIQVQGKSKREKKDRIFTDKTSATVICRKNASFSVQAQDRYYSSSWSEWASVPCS
As to the kind of experiment: ELISA, monkey (macaque) IL-12 coated on the plate; 13A8 is the anti IL-6 negative control [Binding to Monkey IL-12].

The target in assay [8] is T5, human IL-12 p40 subunit (human, UniProt P29460 23-328).
T5 construct: Coated on ELISA plates
T5 sequence (looked up): T3 sequence (looked up) 2
As to the kind of experiment: ELISA, human IL-12 p40 subunit coated on the plate; 13A8 is the anti IL-6 negative control [Binding to human IL-12 p40].

Assay [9] deals with T6, primate IL-23 (p40:p19 fusion, 6×HIS) (primate).
T6 chain: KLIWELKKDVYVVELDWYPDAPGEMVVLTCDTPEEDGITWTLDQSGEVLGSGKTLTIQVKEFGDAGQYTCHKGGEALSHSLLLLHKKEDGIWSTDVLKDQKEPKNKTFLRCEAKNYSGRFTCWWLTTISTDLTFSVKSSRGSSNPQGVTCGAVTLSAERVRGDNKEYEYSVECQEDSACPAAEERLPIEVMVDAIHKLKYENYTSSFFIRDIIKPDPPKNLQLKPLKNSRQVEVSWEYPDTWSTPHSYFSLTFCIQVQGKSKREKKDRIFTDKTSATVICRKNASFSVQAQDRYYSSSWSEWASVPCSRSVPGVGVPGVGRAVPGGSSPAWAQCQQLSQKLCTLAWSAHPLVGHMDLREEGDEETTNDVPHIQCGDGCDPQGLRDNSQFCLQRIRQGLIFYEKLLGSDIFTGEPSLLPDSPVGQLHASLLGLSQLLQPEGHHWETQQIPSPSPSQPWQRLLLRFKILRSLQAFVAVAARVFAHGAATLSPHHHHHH
As to the kind of experiment: cell-based or functional assay.

The target in assay [10] is T3, human IL-12. Put plainly: ELISA, human IL-12 coated on the plate; antibody concentration not given [Binding to Human IL-12].
The target in assay [11] is T5, human IL-12 p40 subunit. As to the kind of experiment: ELISA, human IL-12 p40 subunit coated on the plate; antibody concentration not given [Binding to human IL-12 p40].

Like-named read-outs stand apart in the source and are kept apart here.

B1: 9H4 chimeric mAb (antibody, V domains shown)
VH: QSLEESGGRLVTPGTPLTLTCTASGFSLSSYDMSWVRQAPGKGLEWIGYIYTDTSTYYANWAKGRFSISKTSTTVDLKMTSLTAEDTATYFCAKGSTDYAFDTRLDLWGPGTLVTVSS
VL: YDMTQTPASVEVAMGGTVTIKCQASQSISNELSWYQQKPGQPPKLLIYRTSTLASGVSSRFKGSGSGTEYTLTISGVECADAATYYCQQGYNSNDVDNVFGGGTEVVVVR
notes: Rabbit/human chimeric IgG (human IgG1, kappa); HEK293; also called 9H4 clone
What is called Kd is the free concentration of one partner at which half of the binding sites on the other are occupied at equilibrium, for simple one-to-one binding. By koff is commonly meant the first-order rate constant of dissociation. In general, kon refers to the rate constant with which the complex forms. As for B1, the “EC50, inhibition of IL-6 induced B9 cell proliferation” value in assay [1] worked out at 0.109 ng/mL. For the same molecule, in assay [2], the “IC50 (read off the curve) (B9 proliferation, OD570-600)” value was approximately 10 ng/mL. In assay [3], this molecule registered a Kd of 0.058 nM, a koff of 4.75e-05 s⁻¹ and a kon of 816000 M⁻¹ s⁻¹.

B2: 13A8 chimeric mAb (antibody, V domains shown)
VH: QSVEESGGRLVTPGTPLTLTCTVSGIDLSSYDMSWVRQAPGKGLEWIGYIYTDSSTWYANWAKGRFTISKTSSTTVDLKMTSLTTEDTATYFCAKGSTDYAFDTRLDLWGPGTLVTVSS
VL: NIVMTQTPSPVSGAVGGTVTINCQASQSISNELSWYQQKPGQPPRLLIYRASTLTSGVSSRFKGSGAGTQFTLTISGVECADAATYYCQQGYNSNDVDNVFGGGTKVVVVR
notes: HEK293; also called 13A8 clone
As to B2, in [4], the “EC50, inhibition of IL-6 induced B9 cell proliferation” value amounted to 0.034 ng/mL. The “IC50 (read off the curve) (B9 proliferation, OD570-600)” value in assay [5] is approximately 0.4 ng/mL. Also, the binding result in assay [6], in assay [7] and in assay [8] was “no binding” in each case. Besides, binding in assay [3] was put at a Kd of 0.218 nM. The molecule further showed a dissociation rate constant (koff) in [3] of 0.000138 s⁻¹. In addition, the kon in assay [3] stood at 633000 M⁻¹ s⁻¹.

B3: 31A12 chimeric mAb (antibody, V domains shown)
VH: QSLEESGGRLVTPGTPLTLTCTASGFSLSSYWMTWVRQAPGGGLEWIGTIATSSTYYASWAKGRFTISRTSTTVDLKMTSLTTEDTATYFCARGLTTDYDLDLWGPGTLVTVSS
VL: LVMTQTPASVSAAVGGTVTINCQASEDIESYLAWYQQKPGQRPKLLIYSASTLTSGVPSRFKGSGSGKQFTLTISGVQREDAATYYCLGADDTTTVFGGGTKVVVVR
notes: Rabbit/human chimeric IgG (human IgG1, kappa); HEK293; also called 31A12 mAb
Regarding B3, the “IC50 (read off the curve) (IL-17 from mouse splenocytes, OD450)” value in assay [9] was approximately 0.2 ng/mL. Also, the binding result in assay [10] and in assay [11] was “binds” throughout.
